In PMC2764441:
Where “and” joins values, the source holds several entries; their conditions need not be identical. Equal entries are not always repeated. Values belong to the binder of their own block, whether it stands above or below them.

Tests used:
[1] = target: T1, NF-κB p50 (recombinant human p50) (human), P19838; assay: cross-linking; conditions: remark: other sources report otherwise
T1 chain: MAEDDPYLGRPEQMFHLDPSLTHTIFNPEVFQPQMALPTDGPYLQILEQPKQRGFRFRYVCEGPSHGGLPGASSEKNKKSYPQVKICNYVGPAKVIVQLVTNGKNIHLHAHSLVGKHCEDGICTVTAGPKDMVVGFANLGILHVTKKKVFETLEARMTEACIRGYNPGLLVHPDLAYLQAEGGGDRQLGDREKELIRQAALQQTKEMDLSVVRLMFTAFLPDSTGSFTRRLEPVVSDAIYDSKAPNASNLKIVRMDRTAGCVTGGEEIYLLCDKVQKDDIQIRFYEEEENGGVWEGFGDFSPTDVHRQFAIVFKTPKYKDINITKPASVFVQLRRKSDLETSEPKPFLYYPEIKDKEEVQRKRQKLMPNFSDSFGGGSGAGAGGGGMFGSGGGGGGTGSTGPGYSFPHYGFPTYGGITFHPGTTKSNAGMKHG

[2] = target: NF-kB p65 homodimer, human (human, UniProt Q04206 19-306); assay: EMSA
[3] = target: NF-kB p65 homodimer, murine (mouse, UniProt Q04207 19-306); assay: EMSA
[4] = target: T2, NF-κB p65 (recombinant p65) (not stated (human or murine protein purified)), Q04207; assay: cross-linking; conditions: remark: other sources report otherwise
T2 chain: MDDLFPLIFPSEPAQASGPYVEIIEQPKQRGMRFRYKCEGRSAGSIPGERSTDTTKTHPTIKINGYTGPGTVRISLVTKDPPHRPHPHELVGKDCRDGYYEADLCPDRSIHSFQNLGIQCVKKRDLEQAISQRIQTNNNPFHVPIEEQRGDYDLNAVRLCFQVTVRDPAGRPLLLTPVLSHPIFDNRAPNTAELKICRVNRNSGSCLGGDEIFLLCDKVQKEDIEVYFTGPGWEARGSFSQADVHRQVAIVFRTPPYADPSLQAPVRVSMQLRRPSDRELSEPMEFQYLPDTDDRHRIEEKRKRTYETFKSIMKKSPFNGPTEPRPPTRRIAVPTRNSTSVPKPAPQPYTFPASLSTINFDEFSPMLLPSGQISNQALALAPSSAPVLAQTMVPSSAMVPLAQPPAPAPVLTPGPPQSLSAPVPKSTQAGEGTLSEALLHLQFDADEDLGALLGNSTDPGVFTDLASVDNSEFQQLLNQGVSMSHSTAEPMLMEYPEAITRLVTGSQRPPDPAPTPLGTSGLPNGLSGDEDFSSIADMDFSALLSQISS

Sequence of NF-kB p65 homodimer, human (Q04206 19-306): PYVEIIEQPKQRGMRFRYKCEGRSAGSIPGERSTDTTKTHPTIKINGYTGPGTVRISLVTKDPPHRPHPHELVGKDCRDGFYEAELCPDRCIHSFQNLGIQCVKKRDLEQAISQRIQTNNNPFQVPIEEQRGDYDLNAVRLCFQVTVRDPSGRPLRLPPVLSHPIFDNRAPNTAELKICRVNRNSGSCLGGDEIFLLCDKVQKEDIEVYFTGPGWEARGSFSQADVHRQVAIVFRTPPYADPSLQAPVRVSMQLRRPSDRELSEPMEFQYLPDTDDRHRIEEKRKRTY

- stoichiometry N [1]: 2 and 4
B1: NF-κB p50 (recombinant human p50), P19838 1-433 (natural protein)
chain: MAEDDPYLGRPEQMFHLDPSLTHTIFNPEVFQPQMALPTDGPYLQILEQPKQRGFRFRYVCEGPSHGGLPGASSEKNKKSYPQVKICNYVGPAKVIVQLVTNGKNIHLHAHSLVGKHCEDGICTVTAGPKDMVVGFANLGILHVTKKKVFETLEARMTEACIRGYNPGLLVHPDLAYLQAEGGGDRQLGDREKELIRQAALQQTKEMDLSVVRLMFTAFLPDSTGSFTRRLEPVVSDAIYDSKAPNASNLKIVRMDRTAGCVTGGEEIYLLCDKVQKDDIQIRFYEEEENGGVWEGFGDFSPTDVHRQFAIVFKTPKYKDINITKPASVFVQLRRKSDLETSEPKPFLYYPEIKDKEEVQRKRQKLMPNFSDSFGGGSGAGAGGGGMFGSGGGGGGTGSTGPGYSFPHYGFPTYGGITFHPGTTKSNAGMKHG

B2: R1 anti-p65 RNA aptamer (structured_RNA)
RNA: GAAGCUUACAAGAAGGACAGCACGAAUAAAACCUGCGUAAAUCCGCCCCAUUUGUGUAAGGGUAGUGGGUCGAAUUCCGCUCA
- binding result [2]: binds
- Kd [3]: 38 ± 20 nM

- stoichiometry N [4]: 2
B3: NF-κB p65 (recombinant p65), Q04207 1-549 (natural protein)
chain: MDDLFPLIFPSEPAQASGPYVEIIEQPKQRGMRFRYKCEGRSAGSIPGERSTDTTKTHPTIKINGYTGPGTVRISLVTKDPPHRPHPHELVGKDCRDGYYEADLCPDRSIHSFQNLGIQCVKKRDLEQAISQRIQTNNNPFHVPIEEQRGDYDLNAVRLCFQVTVRDPAGRPLLLTPVLSHPIFDNRAPNTAELKICRVNRNSGSCLGGDEIFLLCDKVQKEDIEVYFTGPGWEARGSFSQADVHRQVAIVFRTPPYADPSLQAPVRVSMQLRRPSDRELSEPMEFQYLPDTDDRHRIEEKRKRTYETFKSIMKKSPFNGPTEPRPPTRRIAVPTRNSTSVPKPAPQPYTFPASLSTINFDEFSPMLLPSGQISNQALALAPSSAPVLAQTMVPSSAMVPLAQPPAPAPVLTPGPPQSLSAPVPKSTQAGEGTLSEALLHLQFDADEDLGALLGNSTDPGVFTDLASVDNSEFQQLLNQGVSMSHSTAEPMLMEYPEAITRLVTGSQRPPDPAPTPLGTSGLPNGLSGDEDFSSIADMDFSALLSQISS
